{"source": "patent US20190271021A1", "data": [{"target": "human TrkB on CHO cells (CHO-K1-hTrkB/pSRE-Luc) (human) (UniProt Q16620)", "sequence (Q16620 32-822)": "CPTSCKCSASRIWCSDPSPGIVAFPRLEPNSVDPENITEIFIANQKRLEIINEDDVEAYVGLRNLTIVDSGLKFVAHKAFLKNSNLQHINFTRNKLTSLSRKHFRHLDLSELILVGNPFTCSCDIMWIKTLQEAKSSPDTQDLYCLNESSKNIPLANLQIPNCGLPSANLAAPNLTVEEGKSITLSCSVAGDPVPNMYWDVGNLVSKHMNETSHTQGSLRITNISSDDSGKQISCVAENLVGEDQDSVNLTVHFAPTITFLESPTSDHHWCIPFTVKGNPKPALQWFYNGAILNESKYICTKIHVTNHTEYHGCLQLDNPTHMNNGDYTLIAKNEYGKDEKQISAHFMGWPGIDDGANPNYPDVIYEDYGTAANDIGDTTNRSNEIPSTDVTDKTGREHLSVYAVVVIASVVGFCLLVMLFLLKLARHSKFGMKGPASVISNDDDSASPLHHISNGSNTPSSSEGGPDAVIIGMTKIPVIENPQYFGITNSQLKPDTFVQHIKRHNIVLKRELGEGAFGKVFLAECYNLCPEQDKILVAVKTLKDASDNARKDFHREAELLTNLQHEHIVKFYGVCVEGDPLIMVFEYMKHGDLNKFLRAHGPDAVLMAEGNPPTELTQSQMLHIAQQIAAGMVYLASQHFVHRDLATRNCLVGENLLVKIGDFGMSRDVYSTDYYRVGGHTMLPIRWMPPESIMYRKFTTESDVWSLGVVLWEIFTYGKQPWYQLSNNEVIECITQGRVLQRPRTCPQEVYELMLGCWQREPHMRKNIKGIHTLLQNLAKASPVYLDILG", "experiment": "cell-based or functional assay", "units": {"BDNF activity in TrkBluciferase assay, EC50 [nM]": "nM", "relative BDNF activity in TrkB luciferase assay, EC50 [%]": "%"}, "values": [{"binder": "pre-pro(R54A)-BDNF(-RGR)-His6 (ligand) HSDPARRGELSVCDSISEWVTAADKKTAVDMSGGTVTVLEKVPVSKGQLKQYFYETKCNPMGYTKEGCRGIDKRHWNSQCRTTQSYVRALTMDSKKRIGWRFIRIDTSCVCTLTIKGSGHHHHHH", "BDNF activity in TrkBluciferase assay, EC50 [nM]": 1.2}, {"binder": "pre-pro(IgA)-BDNF(-RGR)-His6 (ligand) MTILFLTMVISYFGCMKAAPMKEANIRGQGGLAYPGVRTHGTLESVNGPKAGSRGLTSLADTFEHVIEELLDEDQKVRPNEENNKDADLYTSRVMLSSQVPLEPPLLFLLEEYKNYLDAANMSMGSVVAPPAPHSDPARRGELSVCDSISEWVTAADKKTAVDMSGGTVTVLEKVPVSKGQLKQYFYETKCNPMGYTKEGCRGIDKRHWNSQCRTTQSYVRALTMDSKKRIGWRFIRIDTSCVCTLTIKGSGHHHHHH", "BDNF activity in TrkBluciferase assay, EC50 [% or nM]": "282%", "BDNF activity in TrkBluciferase assay, EC50 [nM]": 9.6}, {"binder": "pre-pro-BDNF, RGR deleted, GSG, C-terminal His6, R54A, IgA protease cleavage site (row 2 of Table 9) (ligand) APMKEANIRGQGGLAYPGVRTHGTLESVNGPKAGSAGLTSLADTFEHVIEELLDEDQKVRPNEENNKDADLYTSRVMLSSQVPLEPPLLFLLEEYKNYLDAANMSMGSVVAPPAPHSDPARRGELSVCDSISEWVTAADKKTAVDMSGGTVTVLEKVPVSKGQLKQYFYETKCNPMGYTKEGCRGIDKRHWNSQCRTTQSYVRALTMDSKKRIGWRFIRIDTSCVCTLTIKGSGHHHHHH", "BDNF activity in TrkBluciferase assay, EC50 [nM]": 9.6}, {"binder": "pre-pro(His6-R54A)-BDNF(-RGR) (ligand) MTILFLTMVISYFGCMKAAPMKEANIHHHHHHAPMKEANIRGQGGLAYPGVRTHGTLESVNGPKAGSAGLTSLADTFEHVIEELLDEDQKVRPNEENNKDADLYTSRVMLSSQVPLEPPLLFLLEEYKNYLDAANMSMRVRRHSDPARRGELSVCDSISEWVTAADKKTAVDMSGGTVTVLEKVPVSKGQLKQYFYETKCNPMGYTKEGCRGIDKRHWNSQCRTTQSYVRALTMDSKKRIGWRFIRIDTSCVCTLTIK", "BDNF activity in TrkBluciferase assay, EC50 [nM]": 1.2}, {"binder": "pre-pro(His6-R54A-IgA)-BDNF(-RGR) (ligand) MTILFLTMVISYFGCMKAAPMKEANIHHHHHHAPMKEANIRGQGGLAYPGVRTHGTLESVNGPKAGSAGLTSLADTFEHVIEELLDEDQKVRPNEENNKDADLYTSRVMLSSQVPLEPPLLFLLEEYKNYLDAANMSMGSVVAPPAPHSDPARRGELSVCDSISEWVTAADKKTAVDMSGGTVTVLEKVPVSKGQLKQYFYETKCNPMGYTKEGCRGIDKRHWNSQCRTTQSYVRALTMDSKKRIGWRFIRIDTSCVCTLTIK", "BDNF activity in TrkBluciferase assay, EC50 [nM]": 9.6}, {"binder": "pre-pro-BDNF(-RGR)-opsin(S)-T7-His6 (ligand) APMKEANIRGQGGLAYPGVRTHGTLESVNGPKAGSRGLTSLADTFEHVIEELLDEDQKVRPNEENNKDADLYTSRVMLSSQVPLEPPLLFLLEEYKNYLDAANMSMRVRRHSDPARRGELSVCDSISEWVTAADKKTAVDMSGGTVTVLEKVPVSKGQLKQYFYETKCNPMGYTKEGCRGIDKRHWNSQCRTTQSYVRALTMDSKKRIGWRFIRIDTSCVCTLTIKGSGNGTEGPNFYVPFSNATGSGMASMTGGQQMGHHHHHH", "BDNF activity in TrkBluciferase assay, EC50 [nM]": 0.3}, {"binder": "pre-pro-BDNF(-RGR; G62N, Y63G, Q79T)-T7-His6 (ligand) APMKEANIRGQGGLAYPGVRTHGTLESVNGPKAGSRGLTSLADTFEHVIEELLDEDQKVRPNEENNKDADLYTSRVMLSSQVPLEPPLLFLLEEYKNYLDAANMSMRVRRHSDPARRGELSVCDSISEWVTAADKKTAVDMSGGTVTVLEKVPVSKGQLKQYFYETKCNPMNGTKEGCRGIDKRHWNSTCRTTQSYVRALTMDSKKRIGWRFIRIDTSCVCTLTIKGSGMASMTGGQQMGHHHHHH", "BDNF activity in TrkBluciferase assay, EC50 [% or nM]": "0.13 nM"}, {"binder": "pre-pro-BDNF(-RGR; T35N, Q79T)-T7-His6 (ligand) APMKEANIRGQGGLAYPGVRTHGTLESVNGPKAGSRGLTSLADTFEHVIEELLDEDQKVRPNEENNKDADLYTSRVMLSSQVPLEPPLLFLLEEYKNYLDAANMSMRVRRHSDPARRGELSVCDSISEWVTAADKKTAVDMSGGNVTVLEKVPVSKGQLKQYFYETKCNPMGYTKEGCRGIDKRHWNSTCRTTQSYVRALTMDSKKRIGWRFIRIDTSCVCTLTIKGSGMASMTGGQQMGHHHHHH", "BDNF activity in TrkBluciferase assay, EC50 [% or nM]": "0.064 nM"}, {"binder": "pre-pro-BDNF(-RGR; K25N, Q79T)-T7-His6 (ligand) APMKEANIRGQGGLAYPGVRTHGTLESVNGPKAGSRGLTSLADTFEHVIEELLDEDQKVRPNEENNKDADLYTSRVMLSSQVPLEPPLLFLLEEYKNYLDAANMSMRVRRHSDPARRGELSVCDSISEWVTAADNKTAVDMSGGTVTVLEKVPVSKGQLKQYFYETKCNPMGYTKEGCRGIDKRHWNSTCRTTQSYVRALTMDSKKRIGWRFIRIDTSCVCTLTIKGSGMASMTGGQQMGHHHHHH", "BDNF activity in TrkBluciferase assay, EC50 [% or nM]": "0.21 nM"}, {"binder": "pre-pro-BDNF(-RGR; T35N, G62N, Y63G, Q79T)-T7-His6 (ligand) APMKEANIRGQGGLAYPGVRTHGTLESVNGPKAGSRGLTSLADTFEHVIEELLDEDQKVRPNEENNKDADLYTSRVMLSSQVPLEPPLLFLLEEYKNYLDAANMSMRVRRHSDPARRGELSVCDSISEWVTAADKKTAVDMSGGNVTVLEKVPVSKGQLKQYFYETKCNPMNGTKEGCRGIDKRHWNSTCRTTQSYVRALTMDSKKRIGWRFIRIDTSCVCTLTIKGSGMASMTGGQQMGHHHHHH", "BDNF activity in TrkBluciferase assay, EC50 [% or nM]": "0.069 nM"}, {"binder": "pre-pro-BDNF(-RGR; Q79T, R81N)-T7-His6 (ligand) APMKEANIRGQGGLAYPGVRTHGTLESVNGPKAGSRGLTSLADTFEHVIEELLDEDQKVRPNEENNKDADLYTSRVMLSSQVPLEPPLLFLLEEYKNYLDAANMSMRVRRHSDPARRGELSVCDSISEWVTAADKKTAVDMSGGTVTVLEKVPVSKGQLKQYFYETKCNPMGYTKEGCRGIDKRHWNSTCNTTQSYVRALTMDSKKRIGWRFIRIDTSCVCTLTIKGSGMASMTGGQQMGHHHHHH", "BDNF activity in TrkBluciferase assay, EC50 [% or nM]": "0.05 nM"}, {"binder": "pre-pro-BDNF(-RGR; T35N; G62N; Y63G)-T7-His6 (ligand) APMKEANIRGQGGLAYPGVRTHGTLESVNGPKAGSRGLTSLADTFEHVIEELLDEDQKVRPNEENNKDADLYTSRVMLSSQVPLEPPLLFLLEEYKNYLDAANMSMRVRRHSDPARRGELSVCDSISEWVTAADKKTAVDMSGGNVTVLEKVPVSKGQLKQYFYETKCNPMNGTKEGCRGIDKRHWNSQCRTTQSYVRALTMDSKKRIGWRFIRIDTSCVCTLTIKGSGMASMTGGQQMGHHHHHH", "BDNF activity in TrkBluciferase assay, EC50 [% or nM]": "0.039 nM"}, {"binder": "pre-pro-BDNF(-RGR; K25N; G62N; Y63G)-T7-His6 (ligand) APMKEANIRGQGGLAYPGVRTHGTLESVNGPKAGSRGLTSLADTFEHVIEELLDEDQKVRPNEENNKDADLYTSRVMLSSQVPLEPPLLFLLEEYKNYLDAANMSMRVRRHSDPARRGELSVCDSISEWVTAADNKTAVDMSGGTVTVLEKVPVSKGQLKQYFYETKCNPMNGTKEGCRGIDKRHWNSQCRTTQSYVRALTMDSKKRIGWRFIRIDTSCVCTLTIKGSGMASMTGGQQMGHHHHHH", "BDNF activity in TrkBluciferase assay, EC50 [% or nM]": "276%"}, {"binder": "pre-pro-BDNF(-RGR)-opsin(S)-His6 (ligand) APMKEANIRGQGGLAYPGVRTHGTLESVNGPKAGSRGLTSLADTFEHVIEELLDEDQKVRPNEENNKDADLYTSRVMLSSQVPLEPPLLFLLEEYKNYLDAANMSMRVRRHSDPARRGELSVCDSISEWVTAADKKTAVDMSGGTVTVLEKVPVSKGQLKQYFYETKCNPMGYTKEGCRGIDKRHWNSQCRTTQSYVRALTMDSKKRIGWRFIRIDTSCVCTLTIKGSGNGTEGPNFYVPFSNATGSGHHHHHH", "BDNF activity in TrkBluciferase assay, EC50 [nM]": 0.3}, {"binder": "pre-pro-BDNF(-RGR; G62N, Y63G, R81N)-T7-His6 (ligand) APMKEANIRGQGGLAYPGVRTHGTLESVNGPKAGSRGLTSLADTFEHVIEELLDEDQKVRPNEENNKDADLYTSRVMLSSQVPLEPPLLFLLEEYKNYLDAANMSMRVRRHSDPARRGELSVCDSISEWVTAADKKTAVDMSGGTVTVLEKVPVSKGQLKQYFYETKCNPMNGTKEGCRGIDKRHWNSQCNTTQSYVRALTMDSKKRIGWRFIRIDTSCVCTLTIKGSGMASMTGGQQMGHHHHHH", "BDNF activity in TrkBluciferase assay, EC50 [% or nM]": "203%"}, {"binder": "pre-pro-BDNF(-RGR)-opsin(L)-His6 (ligand) APMKEANIRGQGGLAYPGVRTHGTLESVNGPKAGSRGLTSLADTFEHVIEELLDEDQKVRPNEENNKDADLYTSRVMLSSQVPLEPPLLFLLEEYKNYLDAANMSMRVRRHSDPARRGELSVCDSISEWVTAADKKTAVDMSGGTVTVLEKVPVSKGQLKQYFYETKCNPMGYTKEGCRGIDKRHWNSQCRTTQSYVRALTMDSKKRIGWRFIRIDTSCVCTLTIKGSGNGTEGPNFYVPFSNATGVVRHHHHHH", "BDNF activity in TrkBluciferase assay, EC50 [% or nM]": "555%", "BDNF activity in TrkBluciferase assay, EC50 [nM]": 0.3, "relative BDNF activity in TrkB luciferase assay, EC50 [%]": 10}, {"binder": "pre-pro-BDNF(-RGR; Q79S)-T7-His6 (ligand) APMKEANIRGQGGLAYPGVRTHGTLESVNGPKAGSRGLTSLADTFEHVIEELLDEDQKVRPNEENNKDADLYTSRVMLSSQVPLEPPLLFLLEEYKNYLDAANMSMRVRRHSDPARRGELSVCDSISEWVTAADKKTAVDMSGGTVTVLEKVPVSKGQLKQYFYETKCNPMGYTKEGCRGIDKRHWNSSCRTTQSYVRALTMDSKKRIGWRFIRIDTSCVCTLTIKGSGMASMTGGQQMGHHHHHH", "BDNF activity in TrkBluciferase assay, EC50 [nM]": 6.9}, {"binder": "pre-pro-BDNF(-RGR; R81N)-T7-His6 (ligand, N-glycan at the introduced site (degree of glycosylation ++)) APMKEANIRGQGGLAYPGVRTHGTLESVNGPKAGSRGLTSLADTFEHVIEELLDEDQKVRPNEENNKDADLYTSRVMLSSQVPLEPPLLFLLEEYKNYLDAANMSMRVRRHSDPARRGELSVCDSISEWVTAADKKTAVDMSGGTVTVLEKVPVSKGQLKQYFYETKCNPMGYTKEGCRGIDKRHWNSQCNTTQSYVRALTMDSKKRIGWRFIRIDTSCVCTLTIKGSGMASMTGGQQMGHHHHHH", "BDNF activity in TrkBluciferase assay, EC50 [nM]": 0.8}]}, {"target": "human TrkB on CHO cells (CHO-K1-hTrkB/pSRE-Luc) (human) (UniProt Q16620)", "experiment": "cell-based or functional assay", "remark": "another data set of the same source", "units": {"BDNF activity in TrkBluciferase assay, EC50 [nM]": "nM"}, "values": [{"binder": "pre-pro-BDNF-T7-His6 (ligand) APMKEANIRGQGGLAYPGVRTHGTLESVNGPKAGSRGLTSLADTFEHVIEELLDEDQKVRPNEENNKDADLYTSRVMLSSQVPLEPPLLFLLEEYKNYLDAANMSMRVRRHSDPARRGELSVCDSISEWVTAADKKTAVDMSGGTVTVLEKVPVSKGQLKQYFYETKCNPMGYTKEGCRGIDKRHWNSQCRTTQSYVRALTMDSKKRIGWRFIRIDTSCVCTLTIKRGRGSGMASMTGGQQMGHHHHHH", "BDNF activity in TrkBluciferase assay, EC50 [nM]": 3}, {"binder": "pre-pro-BDNF(-RGD)-myc-His6 (ligand) APMKEANIRGQGGLAYPGVRTHGTLESVNGPKAGSRGLTSLADTFEHVIEELLDEDQKVRPNEENNKDADLYTSRVMLSSQVPLEPPLLFLLEEYKNYLDAANMSMRVRRHSDPARRGELSVCDSISEWVTAADKKTAVDMSGGTVTVLEKVPVSKGQLKQYFYETKCNPMGYTKEGCRGIDKRHWNSQCRTTQSYVRALTMDSKKRIGWRFIRIDTSCVCTLTIKGSGEQKLISEEDLGSGHHHHHH", "BDNF activity in TrkBluciferase assay, EC50 [nM]": 0.36}]}]}
